T1: purified SND1 (16-339aa) protein (UniProt Q7KZF4 16-339)
T1 sequence: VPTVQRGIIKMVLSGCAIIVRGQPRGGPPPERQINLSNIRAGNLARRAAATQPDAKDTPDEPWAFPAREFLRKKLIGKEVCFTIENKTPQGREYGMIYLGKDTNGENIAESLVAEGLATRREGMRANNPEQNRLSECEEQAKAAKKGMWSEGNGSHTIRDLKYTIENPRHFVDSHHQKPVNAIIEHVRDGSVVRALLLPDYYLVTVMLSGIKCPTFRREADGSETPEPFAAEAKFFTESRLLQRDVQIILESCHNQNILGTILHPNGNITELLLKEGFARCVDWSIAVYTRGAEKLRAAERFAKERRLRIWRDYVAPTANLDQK

T2: TC-SND1 (16-339aa) (UniProt Q7KZF4 16-339, FlAsH-EDT2 labelling reagent on the tetracysteine tag)
T2 sequence: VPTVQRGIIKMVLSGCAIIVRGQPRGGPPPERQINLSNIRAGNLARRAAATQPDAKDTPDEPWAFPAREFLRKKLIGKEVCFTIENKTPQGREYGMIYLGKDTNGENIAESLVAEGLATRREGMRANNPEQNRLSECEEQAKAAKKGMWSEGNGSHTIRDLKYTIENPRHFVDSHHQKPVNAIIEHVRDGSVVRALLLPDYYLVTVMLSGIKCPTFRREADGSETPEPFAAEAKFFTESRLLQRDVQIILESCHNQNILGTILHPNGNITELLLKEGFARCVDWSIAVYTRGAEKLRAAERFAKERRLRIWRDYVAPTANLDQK


Columns and labels:
[1] = target: T1, purified SND1 (16-339aa) protein; experiment: MST
TC-SND1 (16-339aa) = target: T2, TC-SND1 (16-339aa); experiment: FRET or BRET

Binder	binding result [1]	binding result (TC-SND1 (16-339aa))
PNSDWNAPAEEWGNW [wild type MTDH (MTDH-WT) minimal peptide]	binds	binds
SSADPNSDWNAPAEEWGNWVDE (domain or fragment) [CFP-MTDH (386-407aa)]	–	binds
